Data as given in paper PMC9052121 (RSC Advances, 2020).
Where no end group is shown, it is not given here.

Target: bovine insulin (bovine, UniProt P01317 85-105; P01317 25-54)
Assay: ITC

Sequence of bovine insulin (P01317 85-105, chain 1 of 2): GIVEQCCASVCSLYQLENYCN
Sequence of bovine insulin (P01317 25-54, chain 2 of 2): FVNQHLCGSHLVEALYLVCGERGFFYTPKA

Row | binding result | stoichiometry N | Binder
1 | binds | – | Ac-DIFFRYNGKVWWR (designed binder) [B2T_FF (N-DIFF-RYNGKVWWR-C), de novo designed 13-mer beta-hairpin peptide]
2 | binds | – | Ac-KVYYRYNGKVWWR (designed binder) [B2T_KV (N-KVYY-RYNGKVWWR-C), de novo designed 13-mer beta-hairpin peptide]
3 | – | 4 peptides per insulin | Ac-DITTRYNGKVWWR (designed binder) [B2T_TT (N-DITTRYNGKVWWR-C), de novo designed 13-mer beta-hairpin peptide]
